Measured values published in the DeepSol protein solubility set.

Test: soluble on expression in E. coli; label from the status in PepcDB or PDB records

Sequence	soluble on expression in E. coli
MSNNNTSIHDFDFSFICNYFKLLKRQGPGSPEATRKAVSFINELTDDAKIADIGCGTGGQTLFLADYVKGQITGIDLFPDFIEIFNENAVKANCADRVKGITGSMDNLPFQNEELDLIWSEGAIYNIGFERGMNEWSKYLKKGGFIAVSEASWFTSERPAEIEDFWMDAYPEISVIPTCIDKMERAGYTPTAHFILPENCWTEHYFAPQDEVRETFMKEHAGNKTAMDFMKGQQYERSLYSKYKDYYGYVFYIGQKRLEHHHHHH	soluble
MSLTPDAQVATAQRDDQALISEGKDLYDVACITCHGVNLQGVEDRGPSLVGVGEGAVYFQVHSGRMPILRNEAQAERKAPRYTEAQTLAIAAYVAANGGGPGLVYNEDGTLAMEELRGENYDGQITSADVARGGDLFRLNCASCHNFTGRGGALSSGKYAPNLDAANEQEIYQAMLTGPQNMPKFSDRQLSADEKKDIIAFIKSTKEGHHHHHH	soluble
MGSDKIHHHHHHSDNAGRTDKQTATVHDSQKDTSSDSKSDNDKKDTKYKSADEITMDDLMSHDETPAEDFELIDNSDEIVIQKYIGKDPIMVIPDEINGKKVVSLGTYALANDKNIVAIKIGNNIKDLGEGVFGNCENLRYVVLGDSVKTIGCNPFLNTNIQEVTLNDGLQKIGEDDINNTVDAPSKNIGMDLKIPESVTEMHLRDFHLIVKAGSYAEQYAKEYAESNNLTYTVE	not soluble
SLVGYSAVSQPSPASFLLGPTLPPAPSIAFRLWRPYSMTARITSVEALPYRLPLTSKLAWGAHSALSAAEHVLVRVTLSDGSVGVAEATPRPTIYGETPGSVTAILQHLEPALLGLDIADEAALNRVRGSVAGNHTARGALDMALWEARAASRGQSLFDTLLGPHERVRVSFILGIAPPAEMLAEAERVVAAGVRCLKVKVGRHAAQDLQVIAELRRRYGDDVQLYADSNETLTLEQAPDVLAAMREAGLMYVEEPLPARDLRARAALHAAGVLPIVADDSCFTPADLERELDFDTFDVLNVKTARNGFTDGLQMLRRAAEHGKRGMVGSQASTGLGTLHAALLSTQAEVTEPCELSFVLKLGDDLLNRPIEFQDGWLNVPELREHRLDEDKLARYRI	soluble
THRAFNPKTLYIDASTSALKYSQGSTVYFRLPLDDIVRVQIQKESFSSQSLMIYTVNDSYQVPNSDNFDSLQLKYLMKKLEKRLDDQRR	not soluble
HGPAEISDLDRQIEQLRRCELIKESEVKALCAKAREILVEESNVQRVDSPVTVCGDIHGQFYDLKELFRVGGDVPETNYLFMGDFVDRGFYSVETFLLLLALKVRYPDRITLIRGNHESRQITQVYGFYDECLRKYGSVTVWRYCTEIFDYLSLSAIIDGKIFCVHGGLSPSIQTLDQIRTIDRKQEVPHDGPMCDLLWSDPEDTTGWGVSPRGAGYLFGSDVVAQFNAANDIDMICRAHQLVMEGYKWHFNETVLTVWSAPNYCYRCGNVAAILELDEHLQKDFIIFEAAPQETVRASSPSPL	soluble
STGPVAPLPTPPNFPNDIALFQQAYQNWSKEIMLDATWVCSPKTPQDVVRLANWAHEHDYKIRPRGAMHGWTPLTVEKGANVEKVILADTMTHLNGITVNTGGPVATVTAGAGASIEAIVTELQKHDLGWANLPAPGVLSIGGALAVNAHGAALPAVGQTTLPGHTYGSLSNLVTELTAVVWNGTTYALETYQRNDPRITPLLTNLGRCFLTSVTMQAGPNFRQRCQSYTDIPWRELFAPKGADGRTFEKFVAESGGAEAIWYPFTEKPWMKVWTVSPTKPDSSNEVGSLGSAGSLVGKPPQAREVSGPYNYIFSDNLPEPITDMIGAINAGNPGIAPLFGPAMYEITKLGLAATNANDIWGWSKDVQFYIKATTLRLTEGGGAVVTSRANIATVINDFTEWFHERIEFYRAKGEFPLNGPVEIRCCGLDQAADVKVPSVGPPTISATRPRPDHPDWDVAIWLNVLGVPGTPGMFEFYREMEQWMRSHYNNDDATFRPEWSKGWAFGPDPYTDNDIVTNKMRATYIEGVPTTENWDTARARYNQIDPHRVFTNGFMDKLLP	soluble
MAHHHHHHMGGPPTIEELKREKIIPHVFPDENVDLTVDMYISFKSGKEVNHGNILDLAGTGSVPRNIKFSEEPPEDYCYILFMIDPDFPSRRRPDGRDYVHWAVSGIKSKELVKGTDKNCITLLPYVGPSIKKGTGLHRISFILSLVKEENKGNVTGVPLYRGEHYITRVKFNNCQSAYNVIQMNDMKIVGFNWCQMRRK	soluble
VLGSSSTDAIGPGSVFQIDATVADVYLVSRFNRTHIIGRPVLYIVQDCFSKLIVGLYVGLEGPSWIGAAMALANTAGNKVSFCSQYGIDIQEEEWPVHHLPQAILADRGEMLSDNAESLIMNLGITVKNTPPFRADWKPLVERYFKLTNERTKSLLPGAVNTDFMQRGGRDYRLDAKLDLMQFTAIIIKCALFHNNHYRIDNYNKDEMMVADEVEPIPREIWNWGIANRMGKLRHVDEEVVKLNLMPSDNGVVTAKGIRFKGLFYSSKSSMKEQWFVKARSSGSWKVPVSYDPRNMNYIYIKKSATEFEKCYLLEYQTAFKDKYIEEIEYLMEWEKMQKAKSLDEGLQAKADLITEIETIVEGAKSKTNKELSLSTESDAQRKKNIRQNRQVEKEINREIEAFELDRQPNNKNAEIISLNELEEELPSNPLDLLRRKQREMLGKINE	not soluble
MSCNSFFVFCANSKKEKKDKILEITPQGTTPLPCSRQSRMRDENGSTRTRGGSRGIKSSKEPDSTDDAFKEMAKRLAKKDKPEKTLDFI	soluble
AHHHHHHGSIIIMDNGGQYVHRIWRTLRYLGVEAKIIPNTTPLDEIKAMKPKGIIFSGGPSLENTGNCEKILEHYEEFNVPILGICLGHQLIAKFFGGEVGRGEKAEYSLVEIEIIDENDIFKGLPRKVRVWESHMDEVKKLPPKFKLLARSDTCPVEAMKHEELPIYGVQFHPEVAHTEHGADILRNFAKICGEL	soluble
MGSDKIHHHHHHMPRPFRLSCALLHEPVSSNLMDLKYGDTSFSLAIPPERLMGVIRPSVPAPDSDPAAIISEALDRCADAIATFRTGERVVIVTSDITRYTGSEIYLPLLVERLAAAGVRERDIEIVVALGIHRKQTEHEHQRITGPLYGRIRITDHECDNPGKLVLIGRTSTGVDVVVNRTVAEADRVILTGTIGFHYFAGFGGGRKSILPGVAGRASCMASHYAVLNPGEGTGRNPLATTGNLEGNPVHQTMVEACAMVNPEFILNTVLSPAKRIIAAFAGHWREAHEEGCRFYADRFSFPLKKPADLVVVSCGGYPKDINVIQSHKSMEYGCQALRRGGVMVLLAQCRDGYGNATFFDWFRFRELDAFEARLRSHYEINGQTAFSLLQKARTFSIILVSDLPPEEVRTMGMTPARTLDEAMTAAASLLPSDYTAYVVPEGGTVLPIMM	not soluble
MSSLTDKTRNGALKRNLLRQMLKASVFKFGEFQLKSGQISPIYIDLRECFGHPGLLMLISEAISKQVEISEVQYAGVLGIPYAALPYASVAAGNYLKKPLLIVRKEAKSYGTKKLIEGLYQPNDRLILIEDVVTTGGSILDVVKVLHTENLVASDVFCILDREQGGRQKLQDAGVTLHSLLDMQTVLTFLYSTGAIGDEQWHGIVQALNLPYTSPTKLEINSELENLSSLPYVENVRTPLAERESLTESALIKKILGIMRRKKSNLCLAVDYTTVEQCLQMIELAGPFVLAIKLHADAITDFNEEFTRKLTTMANDMDFIIFEDRKFGDTGNTNLLQLTGAQKIANWADVVTVHAVQGSDSIAGVFRKLAKDPTYRLSGVLLIAQLSTKGSLTALEGYTETAVKIANENRDVISGFITQTRVSACSDLLNWTPGVNLDAKSDSAGQQWRGVDEAIEVQQNDIIIVGRGVTSSSEPVQQLKRYRQIAWDALTRSDDSI	not soluble
MMHISVGATEMSWLSSLKSVFSPSQEVKEDDVQTILQSYSLENSSFVLKDRITQINVEGRILQLTIKTFPEEADHLQQIHDELADALQKAGIQELNLHVIQQKTAPRTEPKSSSSTTSSSSHLPPVVDASASPTPDPNNPPIQKKAPIQSEVPAHPRIKNVILVSSGKGGVGKSTTTVNLALALQKQGLKVGVLDADIYGPSIPTMLGNAGRTPKIENENFVPLDAYGLAVLSIGHLTGDNNTPVAWRGPKATGALMQLFNQTLWPDLDVLVIDMPPGTGDIQLTLAQRIPVTGALIVTTPQNVALLDASKGIELFNRVGIPVVGVIENMSTHICSNCGFEEQIFGVGGGDKLSEQYDIPLLGRLPLNAQIRENADKGQPSVIAQDTAAESYQMIAQALWTRVEQLPQRARDDKRIFLEHHHHHH	not soluble
MSSRKQGSQPRGQQSAEEENFKKPTRSNMQRSKMRGASSGKKTAGPQQKNLEPALPGRWGGRSAENPPSGSVRKTRKNKQKTPGNGDGGSTSEAPQPPRKKRARADPTVESEEAFKNRMEVKVKIPEELKPWLVEDWDLVTRQKQLFQLPAKKNVDAILEEYANCKKSQGNVDNKEYAVNEVVAGIKEYFNVMLGTQLLYKFERPQYAEILLAHPDAPMSQVYGAPHLLRLFVRIGAMLAYTPLDEKSLALLLGYLHDFLKYLAKNSASLFTASDYKVASAEYHRKALLEHHHHHH	not soluble
GPGSMVLIECKRLPKDEYSKDYDVFLVSIPGVTNIGEATDVLQQMRNTRVRIKWMMAAAKQLAKDFCSEEQQHHLLGPVADAERYMSLERAERRLTCTQKELDDLVDAFKGGAMILFPAECSGTDAVKRLAQLLDDDNTTDTERSKAHRLLSIIDDGATTEDILQGVATMWWSGKQLDRAADFTKYVGKNEKTKITVKLTAKDAPAPPREPALDAKAQSELMAYYFRKQEEMKKMIEDEDLSYGNSAWANPQGLKSQLHGFDSVKFKPG	soluble
SMIPEVQKPLHEQLWYHGAIPRAEVAELLVHSGDFLVRESQGKQEYVLSVLWDGLPRHFIIQSLDNLYRLEGEGFPSIPLLIDHLLSTQQPLTKKSGVVLHRAVPKDKWVLNHEDLVLGEQIGRGNFGEVFSGRLRADNTLVAVKSCRETLPPDLKAKFLQEARILKQYSHPNIVRLIGVCTQKQPIYIVMELVQGGDFLTFLRTEGARLRVKTLLQMVGDAAAGMEYLESKCCIHRDLAARNCLVTEKNVLKISDFGMSREEADGVYAASGGLRQVPVKWTAPEALNYGRYSSESDVWSFGILLWETFSLGASPYPNLSNQQTREFVEKGGRLPCPELCPDAVFRLMEQCWAYEPGQRPSFSTIYQELQSIRKRHR	soluble
MSTSLTIRLVAEADWPALHALDQIIWTKKNTPAEIQPLSLAAYQEKMKDETIFVAISGQQLAGFIEVHPPTSLAAHQKQWLLSIGVSPDFQDQGIGGSLLSYIKDMAEISGIHKLSLRVMATNQEAIRFYEKHGFVQEAHFKEEFYINGHYCDDYQYAYFIEK	soluble
MSLSKKRAGAMKNYGAGDQFKATKALTFTILHNDMPTYPMKRDWLFWKEVTERTGVTLKPTSVPASDYDKKRSLLIGAGDAPLLIPKTYPGQETAFVSSGAILPVSEYVRLMPNFRAKVEKWGLEGDLDSIRQADGNYYVLPGLHEKVKSGYSLSFRTDVLKKHGLDLPTTWDQVYDVLKALKAAYPDVYPFSDRWGQPTPGGALLNYLGPAFGTKAGWSYANTAWDTKARKYVFTGATDEYRQMLEYLRKLVAEKLMDPESFTQSDDDAVRKLLSGKSFVISANPQELVQNYRYNLGKQVKGATIEMIPVPIGPTGEVIVGSRLENGLMVAGRAAEGDSFVAMMQFVDWLWYSDGGQEFAKYGVEGVTYTSSGAGRYKVADGISYMGSDPSAPKDLQKDYGFTNGEFAYGGSWALVSSSFSPDEKAFQDAMAGRKLLPVDPAHPLKADEQEQATLWDTPLKDHVTQNTLKFALGKRPMSEWDAYLAELKAKNMQRYIDLHNTAYERFKKEHEGHHHHHH	soluble
MGSDKIHHHHHHMRVAPAYGKIALLISVSFSHGRHSVQDKNFDALAGKFAKNIYGTPKGEVRAAVLWRDISQAMTQLPEGPLRILDAGGGFGFFSQKLAKLGHSVTLCDISSEMLALGQAQITEYENNSGEKLDITLLHAPIQSLTREELGQFDLILCHAVAEWLSDAKQTLAGLTQLLKPQGLFSLMFYNKEAMRFHSLISGNFDYVAADFKVKKKVGLTPSYPLYIDDVRGWVSDWQMELVTASGVRVIHDYLKTHQPPNSDFSQLLEMELQYSTHPAYIGLGRYVHFITRWQR	not soluble
